Square brackets hold non-standard residues; d marks the D form. Ends that are not written are not given here. Hyp = O=C(O)[C@@H]1C[C@@H](O)CN1

In the assay the target is T1, HAESA LRR ectodomain (Arabidopsis thaliana, UniProt P47735 15-621).
T1 sequence (looked up): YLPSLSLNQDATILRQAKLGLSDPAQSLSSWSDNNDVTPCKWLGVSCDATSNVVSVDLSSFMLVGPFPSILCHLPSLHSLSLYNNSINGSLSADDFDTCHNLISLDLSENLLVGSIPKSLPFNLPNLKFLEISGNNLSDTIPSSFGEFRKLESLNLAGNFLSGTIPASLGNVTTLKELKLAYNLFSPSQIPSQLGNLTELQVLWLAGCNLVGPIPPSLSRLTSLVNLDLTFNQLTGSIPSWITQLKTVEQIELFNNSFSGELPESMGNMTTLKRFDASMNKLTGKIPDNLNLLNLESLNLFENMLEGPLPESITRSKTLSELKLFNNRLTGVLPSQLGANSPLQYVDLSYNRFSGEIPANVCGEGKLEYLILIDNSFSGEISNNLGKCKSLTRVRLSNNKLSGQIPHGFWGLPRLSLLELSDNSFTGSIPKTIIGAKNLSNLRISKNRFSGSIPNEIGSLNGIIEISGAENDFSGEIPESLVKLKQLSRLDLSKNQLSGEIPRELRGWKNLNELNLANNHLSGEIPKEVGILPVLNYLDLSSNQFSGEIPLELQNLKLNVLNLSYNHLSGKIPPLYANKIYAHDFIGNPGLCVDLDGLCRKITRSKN
Briefly: grating-coupled interferometry.

In general, Kd refers to the equilibrium constant for the complex coming apart. Low values mean tighter binding, high ones weaker binding. The koff is the first-order rate constant of dissociation. A lower koff goes with a long-lived complex. In general, kon refers to a measure of how fast the partners come together. Read a high kon as faster complex formation. For YVPIPPSA[Hyp]SKRHN [INFLORESCENCE DEFICIENT IN ABSCISSION (IDA) peptide, Y-IDA], the Kd is about 30 µM, the off-rate constant (koff) is about 2 s⁻¹ and the kon was about 60000 M⁻¹ s⁻¹.

For the origin of these results see publication PMC5879659 (Proceedings of the National Academy of Sciences of the …, 2018).
